{
  "source": "patent US20210380722A1",
  "about": "“COMPOSITIONS AND METHODS FOR THE TREATMENT OF MAJOR DEPRESSIVE DISORDER” (Snake River Bioscience, Inc., priority 2019, published 2021)",
  "key": {"[1]": {"system": "mice stressed with glucocorticosterone or chronic unpredictable environmental stress (CUS)", "assay": "i.v. treatment of stressed mice with anti-ceramide antibodies or neutral ceramidase; behavior and neurogenesis", "format": "in vivo", "details": "mice stressed 6 days with glucocorticosterone or CUS"}, "[2]": {"system": "healthy wildtype mice injected with blood plasma from stressed mice", "assay": "blood plasma from stressed mice treated in vitro, injected i.v. into healthy wildtype mice", "format": "in vivo", "details": "plasma from stressed mice incubated in vitro with agent, 125 μL i.v. into non-stressed mice, 24 h later; FIGS. 3a, 3b", "protocol": "Corticosterone (Sigma, St. Louis, Mo.) was administered to mice via the drinking water at 120 mg/L for 7 days. In the chronic unpredictable stress model (CUS), the mice were challenged with unpredictable environmental stress for 8 days, i.e., a reversal of the light/dark cycle, 3 h of 45° tilting of the cage twice each week, shaking at 125 rpm, food deprivation for 14 h, predator sounds (15 min) or wet cages (1 h) with two forms of stress per day in a randomized (unpredictable) order. Blood was collected from the heart into heparin-coated needles and tubes immediately after sacrifice by cervical dislocation. Blood plasma was centrifuged at 3500 rpm for 5 min at 4° C. in an Eppendorf centrifuge. […]\n(§1) Behavioral testing was performed between 3:00 p.m. and 6:00 p.m. under diffuse indirect room light. […] The time was recorded during which the mice explored a new environment before they began eating. […] The time that the mouse spent in each of the separate compartments was recorded. […] In the coat state test, the appearance of the coat (groomed vs unkempt coat) was scored on the head, neck, back, and ventrum with either a zero for normal status or a 1 for unkempt status. […] After 24 h the mice were again placed in a water-filled cylinder for 6 min, and the time of mobility or immobility during the last 4 min of the second trial was recorded. […]"}, "[3]": {"system": "untreated wildtype mice injected with exosomes purified from stressed mice", "assay": "exosomes from stressed mice incubated ex vivo, injected i.v. into untreated wildtype mice", "format": "in vivo", "details": "exosomes from stressed mice incubated 60 min ex vivo with agent, within 24 h, FIGS. 3c, 3d", "protocol": "To achieve in vitro neutralization of consumption of ceramide, 125 μL blood plasma or exosomes (purified from 150 μL blood plasma as described below) were incubated with 0.5 μg purified IgM anti-ceramide antibodies, 0.5 μg control IgM or 1 μg recombinant neutral ceramidase.\nTo isolate exosomes from blood plasma, samples were centrifuged at 16,500×g for 20 min. The supernatant was then passed through a 0.22-μm filter and exosomes were harvested by centrifugation twice at 100,000×g for 70 min. The final pellet was resuspended in phosphate-buffered saline (PBS). Exosomes were pelleted by centrifugation at 100,000×g for 70 min, the supernatant was discarded, and the exosomes were resuspended and injected i.v. into healthy mice. […]\nas §1"}, "[4]": {"system": "healthy mice injected with exosomes from patients with MDD", "assay": "exosomes from blood plasma of MDD patients treated in vitro, injected into healthy mice", "format": "in vivo", "details": "human exosomes preincubated with agent, 24 h after injection, FIGS. 5a, 5b", "protocol": "Depressive patients (7 women, 10 men) aged >60 years (mean age=71.1 years, SD=4.7) were recruited at the Psychiatric University Hospital, Basel, Switzerland. […] For comparison, 9 healthy individuals without history of depression (mean age=70.9 years, SD=5.3) were included in the study. The study was approved by the “Ethikkommission der Nordwest—und Zentralschweiz” (EKNZ; No. 2015-148) and all participants provided written informed consent. […]\nas §1\nExosomes were isolated from 150 μL blood plasma from patients with major depressive disorder (MDD), and from healthy control subjects. […] Behavior (FIG. 5a) and neurogenesis (FIG. 5b) were determined to measure the occurrence of MDD in mice after injection of human exosomes from depressed patients. […]"}, "[5]": {"details": "Asah2, R&D; cited from earlier work"}},
  "data": [
    {"molecule": "recombinant neutral ceramidase: recombinant neutral ceramidase (Asah2, R&D, 3,000 pmol/min/μg), consumes plasma ceramide (protein, UniProt Q9JHE3 1-756, looked up) Neutral ceramidase: MAKRTFSTLEAFLIFLLVIMTVITVALLTLLFVTSGTIENHKDSGNHWFSTTLGSTTTQPPPITQTPNFPSFRNFSGYYIGVGRADCTGQVSDINLMGYGKNGQNARGLLTRLFSRAFILADPDGSNRMAFVSVELCMISQRLRLEVLKRLESKYGSLYRRDNVILSAIHTHSGPAGFFQYTLYILASEGFSNRTFQYIVSGIMKSIDIAHTNLKPGKIFINKGNVANVQINRSPSSYLLNPQSERARYSSNTDKEMLVLKLVDLNGEDLGLISWFAIHPVSMNNSNHFVNSDNMGYAAYLFEQEKNKGYLPGQGPFVAGFASSNLGDVSPNILGPHCVNTGESCDNDKSTCPNGGPSMCMASGPGQDMFESTHIIGRIIYQKAKELYASASQEVTGPVLAAHQWVNMTDVSVQLNATHTVKTCKPALGYSFAAGTIDGVSGLNITQGTTEGDPFWDTLRDQLLGKPSEEIVECQKPKPILLHSGELTIPHPWQPDIVDVQIVTVGSLAIAAIPGELTTMSGRRFREAIKKEFALYGMKDMTVVIAGLSNVYTHYITTYEEYQAQRYEAASTIYGPHTLSAYIQLFRDLAKAIATDTVANMSSGPEPPFFKNLIASLIPNIADRAPIGKHFGDVLQPAKPEYRVGEVVEVIFVGANPKNSAENQTHQTFLTVEKYEDSVADWQIMYNDASWETRFYWHKGILGLSNATIYWHIPDTAYPGIYRIRYFGHNRKQELLKPAVILAFEGISSPFEVVTT", "values": [
      {"measurement": "neurogenesis in the hippocampus (BrdU-positive cells)", "setting": "[1]; 24 h after first i.v. injection, FIG. 2b", "value": "normalized neurogenesis"},
      {"measurement": "behavioral signs of major depression (light/dark box, latency to feed, time in center, splash test, forced swim test, coat test)", "setting": "[1]; i.v. injection 24 h and 12 h before analysis, FIG. 2a", "value": "abrogated behavioral signs of major depression in stressed mice"},
      {"measurement": "development of MDD (behavioral changes and neurogenesis in the hippocampus)", "setting": "[2]", "value": "prevented the development of MDD"},
      {"measurement": "development of MDD (behavior parameters and neuronal proliferation)", "setting": "[3]", "value": "prevented development of MDD"},
      {"measurement": "depressed behavior and reduced neurogenesis induced by exosomes from depressed patients", "setting": "[4]", "value": "prevented their effects on mice"},
      {"measurement": "activity of recombinant neutral ceramidase", "setting": "[5]", "value": "3,000 pmol/min/μg"}
    ]}
  ]
}
